These results are taken from publication PMC2946933.

As a reminder, the Kd is the equilibrium constant for the complex coming apart. Read a low Kd as a tighter complex.

Where “and” joins values, the source holds several entries; their conditions need not be identical. Identical values can stand only once.

What all share (conditions): EMSA: 50 mM Tris-HCl pH 7.5, 100 mM KCl, 10 mM MgCl2, room temperature, SPR: same buffer, 25 C, Tb footprinting: 50 mM Tris-HCl pH 8.0, 100 mM NaCl
(A gel shift assay detects complexes by their altered migration in electrophoresis.)

Data set [1] has as its target T1, Hfq wild type (Escherichia coli?) (UniProt P0A6X3). As to the kind of experiment: EMSA.
The target of data set [2] is T1, Hfq wild type. Description: SPR.
The target in data set [3] is T1, Hfq wild type. Description: Tb(III) footprinting.

T1 sequence (P0A6X3 whole entry): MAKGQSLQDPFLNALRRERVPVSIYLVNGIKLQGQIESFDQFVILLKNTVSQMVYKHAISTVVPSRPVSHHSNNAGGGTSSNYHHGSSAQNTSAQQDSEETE

In data set [1], “GCAGCGUUACAUUCCCAUCCACUGGGGAAAGACGCGGCGCUGAUUGGUGAAGUGGUGGAACGUAAAGGUGUUCGUCUUGCCGGUCUGUAUGGCGUGAAACGAACCCUCGAUUUACCACACGCCGAACCGCUUCCGCGUAUAUGCUAAUAAAAUUCUAAAUCUCCUAUAGUUAGUCAAUGACCUUUUGCACCGCUUUGCGGUGCUUUCCUGGAAGAACAAAAUGUCAUAUACACCGAUGAGUGAUCUCGGACAACAAGGGUUGUUCGACAUCACUCGGACAAAUAUUGGAUCCGCUCGG [fhlA220 mRNA]” showed a Kd of 15 nM.

For the substance “GGCAGUUAGUCAAUGACCUUUUGCACCGCUUUGCGGUGCUUUCCUGGAAGAACAAAAUGUCAUAUACACCGAUGAGUGAUCUCGGACAACAAGGGUUGUUCGACAUCACUCGGACAACAAAUAUUGGAUCCAGCUCG [fhlA53 mRNA]”, the dissociation constant Kd is 43 nM and 50 nM in data set [2]; 70 nM in data set [1]. In addition, the binding result in data set [3] is “binds”.

On to OxyS sRNA with fhlA220 mRNA, for which the Kd in data set [1] came to 23 nM.

On to fhlA53 mRNA, for which the dissociation constant Kd in data set [2] is 43 nM and 50 nM and 5 nM; in data set [1] (10 mM Mg2+), 70 nM.

The substance fhlA220 mRNA had a dissociation constant Kd in data set [1] (Hfq hexamer, 10 mM Mg2+) of 15 nM.
